Source: the supplement of paper PMC9112550, “Optimization of the antimicrobial peptide Bac7 by deep mutational scanning” (BMC Biology, 2022)

test system: Escherichia coli TOP10; experiment: shrunken log2 fold change of peptide-encoding DNA abundance (4.5 h post-induction vs induction); higher = less antimicrobial activity (less host growth inhibition); details: time post-induction: 4.5 h; library: site-saturation at positions 5, 18, 19, 20
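Note: peptides expressed intracellularly from a pBAD plasmid library in pooled LB shake-flask culture, induced with 0.3% L-arabinose, DNA abundance read by NGS, three biological replicates, DESeq2 with apeglm shrinkage.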

Sequence | shrunken log2 fold change
RRIRMRPPRLPRPRPRPQKCPRP | -0.0433
RRIRMRPPRLPRPRPRPQKRPRP | 0.489
RRIRMRPPRLPRPRPRPQLCPRP | 0.237
RRIRMRPPRLPRPRPRPQMQPRP | 0.108
RRIRMRPPRLPRPRPRPQNIPRP | -0.726
RRIRMRPPRLPRPRPRPQPMPRP | 0.838
RRIRMRPPRLPRPRPRPQQWPRP | 0.153
RRIRMRPPRLPRPRPRPQRCPRP | 0.551
RRIRMRPPRLPRPRPRPQRGPRP | 1.24
RRIRMRPPRLPRPRPRPQSNPRP | 0.0557
RRIRMRPPRLPRPRPRPQTAPRP | 0.524
RRIRMRPPRLPRPRPRPQTVPRP | 0.291
RRIRMRPPRLPRPRPRPQVLPRP | 0.25
RRIRMRPPRLPRPRPRPQWRPRP | 1.5
RRIRMRPPRLPRPRPRPRCGPRP | 0.733
RRIRMRPPRLPRPRPRPRCIPRP | -0.0309
RRIRMRPPRLPRPRPRPREHPRP | 0.402
RRIRMRPPRLPRPRPRPRENPRP | 0.265
RRIRMRPPRLPRPRPRPRFCPRP | 1.63
RRIRMRPPRLPRPRPRPRHMPRP | 0.418

Sequence | shrunken log2 fold change
RRIRMRPPRLPRPRPRPRHNPRP | -0.0227
RRIRMRPPRLPRPRPRPRHRPRP | 0.249
RRIRMRPPRLPRPRPRPRIAPRP | 0.786
RRIRMRPPRLPRPRPRPRIEPRP | -0.0903
RRIRMRPPRLPRPRPRPRIFPRP | 0.011
RRIRMRPPRLPRPRPRPRIMPRP | 0.049
RRIRMRPPRLPRPRPRPRITPRP | 0.122
RRIRMRPPRLPRPRPRPRNRPRP | 0.687
RRIRMRPPRLPRPRPRPRRNPRP | 0.807
RRIRMRPPRLPRPRPRPRTPPRP | 1.26
RRIRMRPPRLPRPRPRPRWEPRP | 0.814
RRIRMRPPRLPRPRPRPSAFPRP | 1.26
RRIRMRPPRLPRPRPRPSCCPRP | 0.291
RRIRMRPPRLPRPRPRPSCGPRP | 0.687
RRIRMRPPRLPRPRPRPSDCPRP | 0.206
RRIRMRPPRLPRPRPRPSDHPRP | 0.386
RRIRMRPPRLPRPRPRPSDRPRP | 0.0714
RRIRMRPPRLPRPRPRPSEPPRP | 0.33
RRIRMRPPRLPRPRPRPSFFPRP | 0.0666
RRIRMRPPRLPRPRPRPSIEPRP | 0.0914

Sequence | shrunken log2 fold change
RRIRMRPPRLPRPRPRPSITPRP | -0.0273
RRIRMRPPRLPRPRPRPSIVPRP | -0.106
RRIRMRPPRLPRPRPRPSKLPRP | -0.0679
RRIRMRPPRLPRPRPRPSKMPRP | -0.0315
RRIRMRPPRLPRPRPRPSLPPRP | -0.0418
RRIRMRPPRLPRPRPRPSNTPRP | -0.0896
RRIRMRPPRLPRPRPRPSQKPRP | 0.246
RRIRMRPPRLPRPRPRPSQMPRP | 0.344
RRIRMRPPRLPRPRPRPSQPPRP | 0.22
RRIRMRPPRLPRPRPRPSRLPRP | 0.19
RRIRMRPPRLPRPRPRPSRPPRP | 0.764
RRIRMRPPRLPRPRPRPSRRPRP | 0.189
RRIRMRPPRLPRPRPRPSSRPRP | 0.208
RRIRMRPPRLPRPRPRPSTHPRP | 0.021
RRIRMRPPRLPRPRPRPSVCPRP | 0.386
RRIRMRPPRLPRPRPRPSVKPRP | 0.185
RRIRMRPPRLPRPRPRPSVWPRP | 0.275
RRIRMRPPRLPRPRPRPSYHPRP | -0.402
RRIRMRPPRLPRPRPRPTAHPRP | 0.767
RRIRMRPPRLPRPRPRPTAPPRP | 0.905
